The record followed here is patent US20040023887A1 (published 2004).

No end group written: not given here.

The target of experiment [1] is T1, soluble IGF-1R (recombinant human IGF-1R extracellular domain, R&D Systems Cat. # 391-GR/CF) (human, UniProt P08069 31-935).
T1 construct: extracellular domain; Bought protein; coated on plates (phage ELISA, TRF) or Eu-labelled (TR-FRET); also called sIGF-1R; rhIGF-1R
Kind of experiment: phage ELISA. (An ELISA detects its analyte on a solid surface through an enzyme-linked reagent.)

The target in experiment [2] is T2, soluble human insulin receptor-immunoglobulin heavy chain chimera (human, UniProt P06213 28-956, limits assumed).
T2 construct: extracellular domain; also called sIR-Fc; IR (prepared according to Bass et al., 1996); not shown: immunoglobulin heavy chain constant domains (Bass et al., 1996)
Kind of experiment: phage ELISA.

Consider RLFYCGIQALGANLGYSGCV (on phage) [R20α-4-20A12-IR], for which the results for the ratio over background in experiment [1] and in experiment [2] were 39.9 ratio and 2.4 ratio, respectively.

For NSRDGGFYLQLERLLGFPVTG (on phage) [20E2B-3-D4-IGFR], the results for the ratio over background in experiment [1] and in experiment [2] were 7.9 ratio and 0.8 ratio, respectively.

For VGRASGFPENFYDWFGRQLSLQSGEQ (on phage) [M2CA-4-H6-IGFR], the ratio over background amounted to 10.5 ratio in experiment [1] and 0.7 ratio in experiment [2].

Regarding GVRAMSFYDALVSVLGLGPSG (on phage) [20E2B-1-A6-IGFR], the ratio over background in experiment [1] stood at 18.1 ratio; in experiment [2], 1.1 ratio.

Regarding PDLHKGFYAQLAQLIRGQLLS (on phage) [20E2B-3-E3-IGFR], the figures for the ratio over background in experiment [1] and in experiment [2] were 16.3 ratio and 1.3 ratio, respectively.

Regarding DRDFCRFYERLTALVGGQVDGGWPC (on phage) [20C-3-F6-IGFR], the results for the ratio over background in experiment [1] and in experiment [2] were 26.1 ratio and 1.9 ratio, respectively.

On to GNGDGMFYQLLSLLVGRDMHV (on phage) [20E2B-3-C2-IGFR], for which the ratio over background in experiment [1] worked out at 8.9 ratio; in experiment [2], 0.6 ratio.

For the molecule HLADGQFHEKFYDWFERQISSRCNDC (on phage) [E2CA-3-E11-IGFR], the ratio over background in experiment [2] came out at 1 ratio.

RGQSDAFYSGLWALIGLSDG (on phage) [R20β-4-A6-IR]: the ratio over background is 25.9 ratio in experiment [1] and 1.5 ratio in experiment [2].

As for RFSTDGFYQYLLALVGGGPVG (on phage) [20E2B-1-A11-IGFR], the ratio over background in experiment [1] was determined as 9.5 ratio; in experiment [2], 1 ratio.

Turning to VGYQGQGDENFYDWFIRQVSGRLGVQ (on phage) [H2CA-4-F5-IGFR], the ratio over background in experiment [1] was found to be 9.7 ratio; in experiment [2] it was 0.8 ratio.

For the molecule RGAVAGFHDQFYDWFDRQVSRVHKFG (on phage) [H2CA-4-H9-IGFR], the ratio over background in experiment [1] turned out to be 5.6 ratio.

Turning to AICDAGFHEHFYDWFALQVSDCGRQS (on phage) [H2CA-2-B11-IGFR], the ratio over background in experiment [1] was found to be 4.6 ratio. In experiment [2], the IR/IGF-1R ratio comparison was found to be 0.3 ratio and the ratio over background was found to be 1.6 ratio.

Consider YSCGDGFYSLLSDLLGGQFRC (on phage) [20E22-4-H12-IGFR], for which the ratio over background in experiment [1] was 9.7 ratio; in experiment [2] it was 0.8 ratio.

Regarding QPDHSYFYSLLQELVGSEERL (on phage) [20E2B-4-F9-IGFR], the ratio over background in experiment [1] worked out at 14.7 ratio.

With AQPCGGFYGLLEQLVGRSVCD (on phage) [20E2B-4-F10-IGFR], the results for the ratio over background in experiment [1] and in experiment [2] were 17.3 ratio and 2.2 ratio, respectively.

On to LQPCSGFYECIERLIGVKLSG (not fully specified (bridges); cysteine pairing not given here, on phage) [20E2Bβ-4-G7-IR], for which the ratio over background in experiment [1] is 25.2 ratio; in experiment [2], 1.6 ratio.

In the case of RGMKEEVLVGGSTDPFYHKLSELLQGS (on phage) [B6Hα-3-F11-IR], the ratio over background in experiment [1] is 18.7 ratio; in experiment [2], 1.6 ratio.

On to RGIVAMVEATEVGSDHDPFYHKLSELVQGS (on phage) [B6Hα-2-C7-IR], for which, in experiment [2], the ratio over background was 1 ratio.

For the molecule FRTLAAQHDSFYDWFDRQVSGAAGER (on phage) [H2CA-3-C11-IGFR], the results for the ratio over background in experiment [1] and in experiment [2] were 3.3 ratio and 1.6 ratio, respectively.

For the molecule VEGRGLFYDLLRQLLARRQNG (on phage) [20E2B-3-C6-IGFR], the results for the ratio over background in experiment [1] and in experiment [2] were 16.8 ratio and 1.1 ratio, respectively.

For PGTDLGFYQALRCVVIQGACD (on phage) [20E2B-2-B2-IGFR], the ratio over background worked out at 4.9 ratio in experiment [1] and 0.6 ratio in experiment [2].

QPAPDGFYSALMKLIGRGGVS (on phage) [20E2B-3-C8-IGFR]: the ratio over background came to 15.6 ratio in experiment [1] and 1.8 ratio in experiment [2].

KLHNLMFYYGLQRLVWGAGLG (on phage) [20E23-4-H3-IGFR]: the figures for the ratio over background in experiment [1] and in experiment [2] were 14.8 ratio and 1.1 ratio, respectively.

For the molecule GFREGSFYDWFQAQVT (on phage) [E4Dα-2-D11-IR], the ratio over background in experiment [1] was found to be 11.1 ratio; in experiment [2], 3.3 ratio.

As for RGCNDDGGKGWSDDPFYHKLSELICGG (on phage) [B6Hα-1-A2-IR], the ratio over background in experiment [2] is 1 ratio.

For the molecule PVGVQGFYEGLSRLVLGRGGW (on phage) [20E2B-4-F8-IGFR], the ratio over background in experiment [1] was 7.3 ratio; in experiment [2] it was 0.8 ratio.

On to TSEVQRRSQDNFYDWFVAQVA (on phage) [A6S-3-E2-IR], for which the ratio over background stood at 24.7 ratio in experiment [1] and 9.8 ratio in experiment [2].

As for QFYGCLLDLSLGVPSFGWRRRCITA (on phage) [20C-3-A4-IGFR], the ratio over background in experiment [1] came out at 8.8 ratio; in experiment [2], 1.2 ratio.

Consider SACQFDCHENFYDWFARQVSGGAAYG (on phage) [H2CA-4-E8-IGFR], for which the ratio over background turned out to be 9.2 ratio in experiment [1] and 1 ratio in experiment [2].

As for SQAGSAFYAWFDQVLRTVHSA (on phage) [20E2Bβ-4-G6-IR], the ratio over background in experiment [1] came out at 6.2 ratio.

For YRGMLVLGRSSDGAGKVAFERPARIGQTVFAVNFYDWFV (on phage) [A6L-0-E6-IR], the ratio over background in experiment [1] was 31 ratio; in experiment [2], 1.8 ratio.

Turning to DRAFYNGLRDLVGAVYGAWD (on phage) [R20α-4-20C11-IR], the ratio over background in experiment [1] amounted to 30.8 ratio; in experiment [2], 3 ratio.

As to GGTEVDFYRALERLVRGQLGL (on phage) [20E2B-3-D8-IGFR], the ratio over background was 17.7 ratio in experiment [1] and 1.6 ratio in experiment [2].

On to FYDAIDQLVRGSARAGGTRD (on phage) [R20α-3-20E2-IR], for which the ratio over background in experiment [1] came out at 39.9 ratio; in experiment [2], 3.1 ratio.

Consider EAASLGSQDRNFYDWFVRQVV (on phage) [A6S-2-D11-IR], for which the results for the ratio over background in experiment [1] and in experiment [2] were 37.4 ratio and 13.5 ratio, respectively.

In the case of VERSASSQDGNFYDWFVVQIR (on phage) [A6S-2-D1-IR], the ratio over background in experiment [1] was determined as 30.6 ratio; in experiment [2] it was 12 ratio.

Consider YRGMLVLGRISGGAGKAASERPARIGQKVSAVNFYDWFV (on phage) [A6L-0-E3-IR], for which the ratio over background in experiment [1] amounted to 26 ratio.

Regarding LGYQEPFQQNFYDWFVRQVSGAENAG (on phage) [H2CA-3-E8-IGFR], the figures for the ratio over background in experiment [1] and in experiment [2] were 6.3 ratio and 2.2 ratio, respectively.

On to FFYDCLAALLQGVARYHDLCAVEIT (on phage) [20C-4-C7-IGFR], for which the ratio over background in experiment [1] stood at 28 ratio; in experiment [2], 1.3 ratio.

Regarding LRIANLFYQRLWDLAFGGGG (on phage) [20E2B-3-E8-IGFR], the ratio over background in experiment [1] was found to be 16.7 ratio; in experiment [2], 1.5 ratio.

Regarding TFYSCLASLLTGTPQPNRGPWERCR (on phage) [20C-3-G3-IGFR], the ratio over background in experiment [1] is 32.3 ratio; in experiment [2] it was 1.2 ratio.

Regarding GRTMAVMAAGGPDDPFYHKLSELVQGG (on phage) [B6Hα-2-D6-IR], the ratio over background in experiment [2] was determined as 1 ratio.

For the molecule SSYGCDGFYLMLFSLGLVASQELEC (on phage) [20C-3-A1-IGFR], the ratio over background in experiment [1] worked out at 20.8 ratio; in experiment [2], 1.5 ratio.

Take IQQELTFYDLLHRLVRSELGS (on phage) [20E2B-3-D2-IGFR]: the ratio over background in experiment [1] is 12.4 ratio; in experiment [2], 1.1 ratio.

On to QGGSASFYDAIDRLLRMRIGG (on phage) [20E2A-4-F11-IGFR], for which the ratio over background in experiment [1] turned out to be 18.8 ratio; in experiment [2], 1.3 ratio.

Regarding RCEEKQAEVGPSSDPFYHKMSELLGCR (on phage) [B6Ha-3-E9-IR], the ratio over background was 24.2 ratio in experiment [1] and 1.7 ratio in experiment [2].
